This note sets out measurements from paper PMC8503845.

This experiment addresses SZ*-GFP-Ub4 (HA-tagged) (UniProt P0CG63). In words: co-IP.

B1: Ubx2-6xGly-3xFLAG (natural protein)
chain: MPVVNHEDSEFHLSHTEEDKLNEFQVITNFPPEDLPDVVRLLRNHGWQLEPALSRYFDGEWKGEPDQMGEPTQTSTPMAETLVPPALGPRPLLFTASLPVVRPLPANFRNDFRTIGLNGRSNTVWSMFESFSYDGNPFLFILLLIPRIINRLSATIFTFFCTLLSLHSISGGGNSGKPKISKVPKAPTRETHIPLAEILGDTKDKDAFCELKSFKPDISFNEALRIAKEEFKFMLLILVGDTYDTDTDTVDVNSKLLLEKILLNKKTLQYLRKIDNDLIIYLKCVHELEPWLVARQLGVRNTPEIFLIANVANKASHSETLPSQRLSILGKLKVNSLNRFLQSLTNVVEKYTPELVVNKTEMHELRMSREIKKLQEDAYKKSLEMDRIKAIEKEKSLKHAQDLKLNSTARQLKWLKACIDEIQPFETTGKQATLQFRTSSGKRFVKKFPSMTTLYQIYQSIGCHIYLAVYSSDPAEWSNALQDKIRQLSADDDMLCFKEGQLETATATTIEELGHIINNELTSFDLERGKLEFDFELVSPFPKYTVHPNEHMSVDQVPQLWPNGSLLVEALDEEDEEDEENEEQ
The molecule B1 registered a fold increase of binding relative to the Ubx2-SZ*-GFP complex of 10 fold.
